Experiment [1] deals with native tubulin purified from porcine brain, polymerised to microtubules (MTs) (porcine). In words: co-sedimentation.
For experiment [2] the target is unchanged. In words: co-sedimentation. This is another data set of the same source.
Experiment [3] has the same target. In words: total internal reflection fluorescence microscopy.
Experiment [4] has the same target. Kind of experiment: co-sedimentation. The source holds these as a separate data set.

Numbering of substitutions follows the chain as printed.

B1: full-length (FL) Cdt1^1-546, untagged (natural protein)
chain: MEQRRVTDFFARRRPGPPRIAPPKLACRTPSPARPALRAPASATSGSRKRARPPAAPGRDQARPPARRRLRLSVDEVSSPSTPEAPDIPACPSPGQKIKKSTPAAGQPPHLTSAQDQDTISELASCLQRARELGARVRALKASAQDAGESCTPEAEGRPEEPCGEKAPAYQRFHALAQPGLPGLVLPYKYQVLAEMFRSMDTIVGMLHNRSETPTFAKVQRGVQDMMRRRFEECNVGQIKTVYPASYRFRQERSVPTFKDGTRRSDYQLTIEPLLEQEADGAAPQLTASRLLQRRQIFSQKLVEHVKEHHKAFLASLSPAMVVPEDQLTRWHPRFNVDEVPDIEPAALPQPPATEKLTTAQEVLARARNLISPRMEKALSQLALRSAAPSSPGSPRPALPATPPATPPAASPSALKGVSQDLLERIRAKEAQKQLAQMTRCPEQEQRLQRLERLPELARVLRSVFVSERKPALSMEVACARMVGSCCTIMSPGEMEKHLLLLSELLPDWLSLHRIRTDTYVKLDKAADLAHITARLAHQTRAEEGL
As to B1, the Kd (usually the concentration at which binding is half-saturated) in experiment [1] stood at 2290 nM.

B2: Cdt1^410-546 (N-terminal GFP fusion) (domain or fragment)
chain: ASPSALKGVSQDLLERIRAKEAQKQLAQMTRCPEQEQRLQRLERLPELARVLRSVFVSERKPALSMEVACARMVGSCCTIMSPGEMEKHLLLLSELLPDWLSLHRIRTDTYVKLDKAADLAHITARLAHQTRAEEGL
On to B2, for which the reduction of MT binding against Cdt1^92-546 in experiment [1] is 50%.

B3: Cdt1^92-546 (human Cdt1 devoid of the N-terminal 92 aa, N-terminal GFP fusion) (domain or fragment)
chain: PSPGQKIKKSTPAAGQPPHLTSAQDQDTISELASCLQRARELGARVRALKASAQDAGESCTPEAEGRPEEPCGEKAPAYQRFHALAQPGLPGLVLPYKYQVLAEMFRSMDTIVGMLHNRSETPTFAKVQRGVQDMMRRRFEECNVGQIKTVYPASYRFRQERSVPTFKDGTRRSDYQLTIEPLLEQEADGAAPQLTASRLLQRRQIFSQKLVEHVKEHHKAFLASLSPAMVVPEDQLTRWHPRFNVDEVPDIEPAALPQPPATEKLTTAQEVLARARNLISPRMEKALSQLALRSAAPSSPGSPRPALPATPPATPPAASPSALKGVSQDLLERIRAKEAQKQLAQMTRCPEQEQRLQRLERLPELARVLRSVFVSERKPALSMEVACARMVGSCCTIMSPGEMEKHLLLLSELLPDWLSLHRIRTDTYVKLDKAADLAHITARLAHQTRAEEGL
Take B3: in experiment [1], the Kd came to 2200 nM and the binding left in the presence of 250 mM NaCl was 50%. Besides, the dissociation constant (Kd) in experiment [2] was found to be 1850 nM. Further, in experiment [3], the Kd was 460 nM; the dwell time was 2.37 s; the kon (in general, the second-order rate constant of association) is 1070 M⁻¹ s⁻¹. Further, the Kd in experiment [4] is 2030 nM.

B4: Cdt1^92-546 8D (Aurora B phosphomimetic mutant) (domain or fragment)
chain: B3 chain with S10D, T11D, S52D, S174D, T179D, T196D, T238D, T267D
In the case of B4, in experiment [4], the Kd turned out to be 5500 nM.

Source of the values: article doi:10.1101/194993.
